Stoichiometry N data for one substance are collected here from paper PMC3921932.

The target of the experiment is recombinant manganese superoxide dismutase (MnSOD) from Lactococcus lactis M4 (Lactococcus lactis M4) (UniProt P0A4J2). Description: SEC; Superose 12 HR 16/70 packed column, 20 mM phosphate buffer, 0.15 M NaCl, pH 7.0, 0.75 mL/min; calibrated with aprotinin, cytochrome c, carbonic anhydrase and BSA; estimated mass 63 kDa against 55.4 kDa theoretical for a dimer.

One may read the stoichiometry N as a count of units in the complex or per binding partner.

Turning to “recombinant manganese superoxide dismutase (MnSOD) from Lactococcus lactis M4 (from UniProt P0A4J2 1-206) (enzyme)”, the stoichiometry N is 2.
